{"source": "the supplement of paper PMC9112550", "about": "“Optimization of the antimicrobial peptide Bac7 by deep mutational scanning” (BMC Biology, 2022);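 further: peptides expressed intracellularly from a pBAD plasmid library in pooled LB shake-flask culture, induced with 0.3% L-arabinose, DNA abundance read by NGS, three biological replicates, DESeq2 with apeglm shrinkage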"}
{"tested_on": "Escherichia coli TOP10", "assay": "shrunken log2 fold change of peptide-encoding DNA abundance (4.5 h post-induction vs induction); higher = less antimicrobial activity (less host growth inhibition)", "settings": "time post-induction: 4.5 h; library: site-saturation at positions 5, 18, 19, 20"}
{"sequence": "RRIRPRPPRLPRPRPRPKNSPRP", "shrunken log2 fold change": -0.144}
{"sequence": "RRIRQRPPRLPRPRPRPMPRPRP", "shrunken log2 fold change": 0.0657}
{"sequence": "RRIRSRPPRLPRPRPRPRKLPRP", "shrunken log2 fold change": 0.316}
{"sequence": "RRIRERPPRLPRPRPRPCAEPRP", "shrunken log2 fold change": -0.0868}
{"sequence": "RRIRSRPPRLPRPRPRPEWSPRP", "shrunken log2 fold change": 0.233}
{"sequence": "RRIRGRPPRLPRPRPRPKALPRP", "shrunken log2 fold change": 0.0797}
{"sequence": "RRIRIRPPRLPRPRPRPFFWPRP", "shrunken log2 fold change": 0.364}
{"sequence": "RRIRGRPPRLPRPRPRPYVPPRP", "shrunken log2 fold change": -0.529}
{"sequence": "RRIRKRPPRLPRPRPRPDYMPRP", "shrunken log2 fold change": 0.0305}
{"sequence": "RRIRERPPRLPRPRPRPAVPPRP", "shrunken log2 fold change": 0.0842}
{"sequence": "RRIRCRPPRLPRPRPRPHPTPRP", "shrunken log2 fold change": -0.0382}
{"sequence": "RRIRDRPPRLPRPRPRPYYFPRP", "shrunken log2 fold change": -0.209}
{"sequence": "RRIRWRPPRLPRPRPRPRQVPRP", "shrunken log2 fold change": 0.16}
{"sequence": "RRIRSRPPRLPRPRPRPIMTPRP", "shrunken log2 fold change": 0.164}
{"sequence": "RRIRFRPPRLPRPRPRPKKNPRP", "shrunken log2 fold change": 0.0769}
{"sequence": "RRIRNRPPRLPRPRPRPKNPPRP", "shrunken log2 fold change": 0.0494}
{"sequence": "RRIRIRPPRLPRPRPRPLCYPRP", "shrunken log2 fold change": -1.07}
{"sequence": "RRIRQRPPRLPRPRPRPLQCPRP", "shrunken log2 fold change": -0.357}
{"sequence": "RRIRWRPPRLPRPRPRPVEMPRP", "shrunken log2 fold change": 0.206}
{"sequence": "RRIRFRPPRLPRPRPRPTMNPRP", "shrunken log2 fold change": -0.511}
{"sequence": "RRIRQRPPRLPRPRPRPILFPRP", "shrunken log2 fold change": 0.0255}
{"sequence": "RRIRERPPRLPRPRPRPGYWPRP", "shrunken log2 fold change": -0.0572}
{"sequence": "RRIRRRPPRLPRPRPRPWVEPRP", "shrunken log2 fold change": 0.0269}
{"sequence": "RRIRDRPPRLPRPRPRPQLQPRP", "shrunken log2 fold change": -0.16}
{"sequence": "RRIRARPPRLPRPRPRPIIQPRP", "shrunken log2 fold change": -0.206}
{"sequence": "RRIRPRPPRLPRPRPRPETMPRP", "shrunken log2 fold change": 0.00383}
{"sequence": "RRIRHRPPRLPRPRPRPDDPPRP", "shrunken log2 fold change": -0.0026}
{"sequence": "RRIRGRPPRLPRPRPRPYPYPRP", "shrunken log2 fold change": -0.095}
{"sequence": "RRIRQRPPRLPRPRPRPRRPPRP", "shrunken log2 fold change": 0.472}
{"sequence": "RRIRERPPRLPRPRPRPHQNPRP", "shrunken log2 fold change": 0.0506}
{"sequence": "RRIRFRPPRLPRPRPRPPCMPRP", "shrunken log2 fold change": -0.125}
{"sequence": "RRIRFRPPRLPRPRPRPMVPPRP", "shrunken log2 fold change": 0.0354}
{"sequence": "RRIRPRPPRLPRPRPRPKTGPRP", "shrunken log2 fold change": 0.186}
{"sequence": "RRIRERPPRLPRPRPRPHNTPRP", "shrunken log2 fold change": -0.731}
{"sequence": "RRIRDRPPRLPRPRPRPCLVPRP", "shrunken log2 fold change": 0.148}
{"sequence": "RRIRYRPPRLPRPRPRPNTMPRP", "shrunken log2 fold change": -1.1}
{"sequence": "RRIRKRPPRLPRPRPRPVARPRP", "shrunken log2 fold change": 0.397}
{"sequence": "RRIRVRPPRLPRPRPRPAHQPRP", "shrunken log2 fold change": 0.317}
{"sequence": "RRIRPRPPRLPRPRPRPPWNPRP", "shrunken log2 fold change": 0.77}
{"sequence": "RRIRMRPPRLPRPRPRPNYNPRP", "shrunken log2 fold change": -0.678}
{"sequence": "RRIRWRPPRLPRPRPRPTFFPRP", "shrunken log2 fold change": 0.312}
{"sequence": "RRIRVRPPRLPRPRPRPWSWPRP", "shrunken log2 fold change": 0.15}
{"sequence": "RRIRGRPPRLPRPRPRPFKYPRP", "shrunken log2 fold change": -0.221}
{"sequence": "RRIRGRPPRLPRPRPRPQRRPRP", "shrunken log2 fold change": 0.565}
{"sequence": "RRIRKRPPRLPRPRPRPESIPRP", "shrunken log2 fold change": 0.235}
{"sequence": "RRIRVRPPRLPRPRPRPWNEPRP", "shrunken log2 fold change": -0.0886}
{"sequence": "RRIRLRPPRLPRPRPRPPGNPRP", "shrunken log2 fold change": 0.303}
{"sequence": "RRIRNRPPRLPRPRPRPPSEPRP", "shrunken log2 fold change": -0.147}
{"sequence": "RRIRDRPPRLPRPRPRPTGLPRP", "shrunken log2 fold change": -0.000418}
{"sequence": "RRIRFRPPRLPRPRPRPHAHPRP", "shrunken log2 fold change": -0.0397}
{"sequence": "RRIRSRPPRLPRPRPRPCERPRP", "shrunken log2 fold change": -0.0685}
{"sequence": "RRIRPRPPRLPRPRPRPKKMPRP", "shrunken log2 fold change": 2.39}
{"sequence": "RRIRVRPPRLPRPRPRPWHFPRP", "shrunken log2 fold change": -0.0232}
{"sequence": "RRIRSRPPRLPRPRPRPIEQPRP", "shrunken log2 fold change": -0.0141}
{"sequence": "RRIRERPPRLPRPRPRPTGVPRP", "shrunken log2 fold change": -0.129}
{"sequence": "RRIRMRPPRLPRPRPRPPKDPRP", "shrunken log2 fold change": 0.622}
{"sequence": "RRIRNRPPRLPRPRPRPDRVPRP", "shrunken log2 fold change": -0.275}
{"sequence": "RRIRVRPPRLPRPRPRPNAVPRP", "shrunken log2 fold change": -0.223}
{"sequence": "RRIRHRPPRLPRPRPRPACWPRP", "shrunken log2 fold change": 0.375}
{"sequence": "RRIRGRPPRLPRPRPRPKGHPRP", "shrunken log2 fold change": 0.67}
{"sequence": "RRIRPRPPRLPRPRPRPAVTPRP", "shrunken log2 fold change": 0.0942}
{"sequence": "RRIRKRPPRLPRPRPRPMMHPRP", "shrunken log2 fold change": 0.0869}
{"sequence": "RRIRSRPPRLPRPRPRPCLEPRP", "shrunken log2 fold change": -0.0107}
{"sequence": "RRIRQRPPRLPRPRPRPFEAPRP", "shrunken log2 fold change": -0.0497}
{"sequence": "RRIRIRPPRLPRPRPRPSEPPRP", "shrunken log2 fold change": -0.192}
{"sequence": "RRIRIRPPRLPRPRPRPKTQPRP", "shrunken log2 fold change": -0.0269}
{"sequence": "RRIRFRPPRLPRPRPRPGRPPRP", "shrunken log2 fold change": 0.514}
{"sequence": "RRIRDRPPRLPRPRPRPFMNPRP", "shrunken log2 fold change": -0.117}
{"sequence": "RRIRERPPRLPRPRPRPMGMPRP", "shrunken log2 fold change": -0.00992}
{"sequence": "RRIRHRPPRLPRPRPRPNRCPRP", "shrunken log2 fold change": -0.259}
{"sequence": "RRIRDRPPRLPRPRPRPNMCPRP", "shrunken log2 fold change": -0.0431}
{"sequence": "RRIRTRPPRLPRPRPRPEAAPRP", "shrunken log2 fold change": 0.574}
{"sequence": "RRIRMRPPRLPRPRPRPFSLPRP", "shrunken log2 fold change": -0.282}
{"sequence": "RRIRHRPPRLPRPRPRPTNDPRP", "shrunken log2 fold change": -0.311}
{"sequence": "RRIRARPPRLPRPRPRPPRIPRP", "shrunken log2 fold change": 0.827}
{"sequence": "RRIRGRPPRLPRPRPRPSRYPRP", "shrunken log2 fold change": -0.0843}
{"sequence": "RRIRQRPPRLPRPRPRPEFQPRP", "shrunken log2 fold change": -0.0764}
{"sequence": "RRIRGRPPRLPRPRPRPDTEPRP", "shrunken log2 fold change": -0.0629}
{"sequence": "RRIRLRPPRLPRPRPRPVWYPRP", "shrunken log2 fold change": -0.277}
{"sequence": "RRIRIRPPRLPRPRPRPRYAPRP", "shrunken log2 fold change": -0.14}
{"sequence": "RRIRPRPPRLPRPRPRPQFEPRP", "shrunken log2 fold change": 0.0184}
{"sequence": "RRIRVRPPRLPRPRPRPQECPRP", "shrunken log2 fold change": -0.00813}
{"sequence": "RRIRCRPPRLPRPRPRPNQYPRP", "shrunken log2 fold change": -0.92}
{"sequence": "RRIRYRPPRLPRPRPRPKRHPRP", "shrunken log2 fold change": -0.159}
{"sequence": "RRIRARPPRLPRPRPRPEFCPRP", "shrunken log2 fold change": 0.83}
{"sequence": "RRIRGRPPRLPRPRPRPRPVPRP", "shrunken log2 fold change": 0.886}
{"sequence": "RRIRERPPRLPRPRPRPQWNPRP", "shrunken log2 fold change": -0.33}
{"sequence": "RRIRPRPPRLPRPRPRPPWVPRP", "shrunken log2 fold change": 0.356}
{"sequence": "RRIRGRPPRLPRPRPRPVYRPRP", "shrunken log2 fold change": 0.15}
{"sequence": "RRIRGRPPRLPRPRPRPDLPPRP", "shrunken log2 fold change": 0.921}
{"sequence": "RRIRSRPPRLPRPRPRPKYNPRP", "shrunken log2 fold change": -0.62}
{"sequence": "RRIRPRPPRLPRPRPRPNGMPRP", "shrunken log2 fold change": 0.171}
{"sequence": "RRIRHRPPRLPRPRPRPRPAPRP", "shrunken log2 fold change": 0.479}
{"sequence": "RRIRNRPPRLPRPRPRPSAWPRP", "shrunken log2 fold change": -0.135}
{"sequence": "RRIRMRPPRLPRPRPRPTLWPRP", "shrunken log2 fold change": 0.968}
{"sequence": "RRIRMRPPRLPRPRPRPSWVPRP", "shrunken log2 fold change": 0.051}
{"sequence": "RRIRDRPPRLPRPRPRPQCNPRP", "shrunken log2 fold change": -0.0196}
{"sequence": "RRIRTRPPRLPRPRPRPSIFPRP", "shrunken log2 fold change": -0.122}
{"sequence": "RRIRSRPPRLPRPRPRPIQPPRP", "shrunken log2 fold change": 0.117}
{"sequence": "RRIRFRPPRLPRPRPRPWPHPRP", "shrunken log2 fold change": -0.132}
{"sequence": "RRIRIRPPRLPRPRPRPEYMPRP", "shrunken log2 fold change": -1.14}
{"sequence": "RRIRMRPPRLPRPRPRPSTGPRP", "shrunken log2 fold change": 0.17}
{"sequence": "RRIRIRPPRLPRPRPRPQFDPRP", "shrunken log2 fold change": -0.505}
{"sequence": "RRIRPRPPRLPRPRPRPAVYPRP", "shrunken log2 fold change": -0.0879}
{"sequence": "RRIRQRPPRLPRPRPRPQEDPRP", "shrunken log2 fold change": -0.0264}
{"sequence": "RRIRNRPPRLPRPRPRPTNEPRP", "shrunken log2 fold change": 0.239}
{"sequence": "RRIRCRPPRLPRPRPRPISYPRP", "shrunken log2 fold change": -0.485}
{"sequence": "RRIRWRPPRLPRPRPRPVAEPRP", "shrunken log2 fold change": 1.41}
{"sequence": "RRIRARPPRLPRPRPRPWDNPRP", "shrunken log2 fold change": 0.0421}
{"sequence": "RRIRLRPPRLPRPRPRPHCKPRP", "shrunken log2 fold change": -0.708}
{"sequence": "RRIRTRPPRLPRPRPRPVVKPRP", "shrunken log2 fold change": -0.189}
{"sequence": "RRIRYRPPRLPRPRPRPGPHPRP", "shrunken log2 fold change": -0.115}
{"sequence": "RRIRDRPPRLPRPRPRPTLVPRP", "shrunken log2 fold change": 0.196}
{"sequence": "RRIRMRPPRLPRPRPRPEQFPRP", "shrunken log2 fold change": 0.216}
{"sequence": "RRIRVRPPRLPRPRPRPLMWPRP", "shrunken log2 fold change": 0.157}
{"sequence": "RRIRCRPPRLPRPRPRPSFIPRP", "shrunken log2 fold change": -0.811}
{"sequence": "RRIRPRPPRLPRPRPRPDQNPRP", "shrunken log2 fold change": -0.065}
{"sequence": "RRIRMRPPRLPRPRPRPPYIPRP", "shrunken log2 fold change": -0.0556}
{"sequence": "RRIRWRPPRLPRPRPRPMKKPRP", "shrunken log2 fold change": -0.0863}
{"sequence": "RRIRIRPPRLPRPRPRPLKVPRP", "shrunken log2 fold change": -0.29}
{"sequence": "RRIRDRPPRLPRPRPRPHMEPRP", "shrunken log2 fold change": 0.198}
{"sequence": "RRIRSRPPRLPRPRPRPQKNPRP", "shrunken log2 fold change": -0.247}
{"sequence": "RRIRPRPPRLPRPRPRPYRPPRP", "shrunken log2 fold change": -0.257}
{"sequence": "RRIRGRPPRLPRPRPRPLSHPRP", "shrunken log2 fold change": 0.557}
{"sequence": "RRIRPRPPRLPRPRPRPKFDPRP", "shrunken log2 fold change": 0.163}
